Residue numbers refer to the chain shown, from its start.
Key:
[1] = Whole cell naphthalene hydroxylation assay, P450cam in E. coli with added HRP, 96-well plate; format: cell-based; conditions: TB and 1.3 mM ALA, 100 μL volume
[2] = Fluorescence image analysis of colonies on agar plates with naphthalene and hydrogen peroxide; format: cell-based, E. coli BL21(DE3); conditions: naphthalene as substrate
[3] = 96-well plate whole cell assay of P450cam variants, generation of fluorescence per time, 3-phenylpropionate; format: cell-based, E. coli; conditions: for Relative rate towards 3-phenylpropionate (generation of fluorescence per time): whole cells, 96-well plate
Protocol: (§1) For the microtitre plate assay, the cells (grown in 4 ml TB/amp (100 ug/ml) media) were centrifuged for 10 min at 4° C. After the supernatant solution was removed, the harvested cells were carefully resuspended in 1 ml buffer solution (dibasic phosphate, 100 mM, pH 9.0). Then, 20 μl aliquots were placed into a Nunc fluorescence microplate. The total 180 μl reaction mixture was made up of 100 μl dibasic sodium phosphate buffer (100 mM, pH9.0), 20 μl ethanol, 10 μl substrate stock (4.5 mM coumarin in 10% ethanol, or 2 mM 3-phenylpropionate in 10% ethanol, 2 mM naphthalene in pure ethanol), and 10 μl hydrogen peroxide stock solution (50 mM H2O2 stock). The other reaction conditions are those described in EXAMPLE 2. The fluorescence was measured as a function of time, and the relative rates presented in Table 2 are the slopes of that measurement (RFU/min).

[4] = format: cell-based, E. coli; conditions: for Relative rate towards naphthalene (generation of fluorescence per time): whole cells, 96-well plate
[5] = 96-well plate whole cell assay of P450cam variants, generation of fluorescence per time, coumarin; format: cell-based, E. coli; conditions: whole cells
Protocol: as §1

[6] = Colorimetric coupling of naphthol by laccase or HRP in cell solutions; format: biochemical; conditions: 1-naphthol 100 uM
Protocol: Laccase was purchased from Sigma Chemicals as a crude acetone powder from the […] Rhus vernificera. […] Type II HRP (RZ approximately 2.0) and all other chemicals were purchased from Sigma. Fluorescence readings were taken with a Perkin-Elmer HTS 7000 plate reading fluorimeter. Excitation and emission wavelengths were 360 nm and 465 nm, respectively.
Experiments were performed at 25° C. in the wells of opaque, white Nunc 96-well plates with a total liquid of 200 uL. Except where stated otherwise, each well contained 10% pure ethanol to improve the solubility of substrates and products. Where HRP was used for comparison, approximately 2.3 units of HRP and 5 mM H2O2 were in each well. […] Tris buffer was not used because it increases background fluorescence. Except where stated, results are given from conditions at pH 9.0, which were either the best results or barely distinguishable from the other conditions.
In order to evaluate laccase in a useful whole cell assay to identify the formation of hydroxylated aromatic compounds by oxidative enzymes (such as cytochrome P450cam and toluene dioxygenase), laccase was added to solutions containing cells, naphthalene, and naphthol. P450cam was expressed in E. coli strain BL21(DE3) using plasmid pCWori+. BL21(DE3) cells with and without the expressed protein were grown in Terrific Broth and after 8 hours were induced with 1 mM IPTG for 24 hours. […]

[7] = ABTS assay; reported by Sigma; cited from earlier work
[8] = HRP peroxidase activity test with ABTS and H2O2, expression in E. coli; format: cell-based, E. coli BL21(DE3)
Protocol: The PCR products were ligated back into the pET-22b(+) vector which was transformed into the BL21(DE3) cells by electroporation. Cell growth and expression was carried out in either 96-well or 384-well microplates in LB medium at 30° C. Peroxidase activity tests were performed with H2O2 and ABTS (32).
IPTG was omitted in all HRP expression experiments, unless otherwise specified. Peroxidase activity tests for HRP were performed with a classical peroxidase assay, ABTS and hydrogen peroxide (26). Fifteen μl of cell suspension was mixed with 140 μl of ABTS/H2O2 (2.9 mM ABTS, 0.5 mM H2O2, pH 4.5) in microplates, and the activity was determined with a SpectraMax plate reader (Molecular Devices, Sunnyvale, Calif.) at 25° C. A unit of HRP is defined as the amount of enzyme that oxidizes 1 μmole of ABTS per min at the assay conditions.

[9] = Stability of mutant HRP at 4° C.

B1: WT: native cytochrome P450cam monooxygenase of P. putida, SEQ. ID. NO. 2 (protein)
chain: TTETIQSNANLAPLPPHVPEHLVFDFDMYNPSNLSAGVQEAWAVLQESNVPDLVWTRCNGGHWIATRGQLIREAYEDYRHFSSECPFIPREAGEAYDFIPTSMDPPEQRQFRALANQVVGMPVVDKLENRIQELACSLIESLRPQGQCNFTEDYAEPFPIRIFMLLAGLPEEDIPHLKYLTDQMTRPDGSMTFAEAKEALYDYLIPIIEQRRQKPGTDAISIVANGQVNGRPITSDEAKRMCGLLLVGGLDTVVNFLSFSMEFLAKSPEHRQELIERPERIPAACEELLRRFSLVADGRILTSDYEFHGVQLKKGDQILLPQMLSGLDERENACPMHVDFSRQKVSHTTFGHGSHLCLGQHLARREIIVTLKEWLTRIPDFSIAPGAQIQHKSGIVSGVQALPLVWDPATTKAV
modifications: P. Putida
Q: Which “total activity (whole cell naphthalene hydroxylation)” value [1] does the source give for B1 here?
A: 430 RFU/min

Q: And the “colony fluorescence in digital scan” value [2]?
A: ~320 fluorescence units

B2: M7-6H (protein)
chain: B1 chain with R280L, E331K
modifications: Mutant M7-6H
Q: Which “increase in activity on 3-phenylpropionate compared to wild-type” value ([3]; another series of experiments) does the source give for B2 here?
A: 3.2 fold

Q: And the “Relative rate towards 3-phenylpropionate (generation of fluorescence per time)” value [3]?
A: 43.6 RFU/min

Q: And the “increased activity over the wild type, naphthalene hydroxylation” value ([4]; from Table 2 data)?
A: 9.4 fold

Q: What about the “Relative rate towards naphthalene (generation of fluorescence per time)” value [4] of the same molecule?
A: 86.7 RFU/min

Q: And the “Relative rate towards coumarin (generation of fluorescence per time)” value [5]?
A: 14.1 RFU/min

B3: M7-8H (protein)
chain: B1 chain with C242F, E331K
modifications: Mutant M7-8H
Q: Which “Relative rate towards 3-phenylpropionate (generation of fluorescence per time)” value [3] does the source give for B3 here?
A: 35.4 RFU/min

Q: What about the “Relative rate towards naphthalene (generation of fluorescence per time)” value [4] of the same molecule?
A: 53.1 RFU/min

Q: And the “Relative rate towards coumarin (generation of fluorescence per time)” value [5]?
A: 12.8 RFU/min

B4: M7-4H (protein)
chain: B1 chain with E331K
modifications: Mutant M7-4H
Q: For B4, which “Relative rate towards 3-phenylpropionate (generation of fluorescence per time)” value [3] is on record?
A: 42.8 RFU/min

Q: What about the “Relative rate towards naphthalene (generation of fluorescence per time)” value [4] of the same molecule?
A: 84.1 RFU/min

Q: What about the “Relative rate towards coumarin (generation of fluorescence per time)” value [5] of the same molecule?
A: 11.5 RFU/min

B5: HRP: horseradish peroxidase; purchased from Sigma (type II) or expressed from synthetic gene in pETpelBHRP (protein, listed as Escherichia coli)
chain: MQLTPTFYDNSCPNVSNIVRDTIVNELRSDPRIAASILRLHFHDCFVNGCDASILLDNTTSFRTEKDAFGNANSARGFPVIDRMKAAVESACPRTVSCADLLTIAAQQSVTLAGGPSWRVPLGRRDSLQAFLDLANANLPAPFFTLPQLKDSFRNVGLNRSSDLVALSGGHTFGKNQCRFIMDRLYNFSNTGLPDPTLNTTYLQTLRGLCPLNGNLSALVDFDLRTPTIFDNKYYVNLEEQKGLIQSDQELFSSPDATDTIPLVRSFANSTQTFFNAFVEAMDRMGNITPLTGTQGQIRLNCRVVNSNS
Q: With B5 as the molecule, how does the “time for color change from light yellow to dark brown” value [6] read?
A: approximately 1 minute

Q: And the “total activity of 1 mg of highly purified HRP” value [7]?
A: 1,000 units

Q: And the “peroxidase activity in cells induced with IPTG” value ([8]; 1 mM IPTG)?
A: no peroxidase activity above background

Q: What about the “activity against ABTS in cells not induced with IPTG” value ([8]; no IPTG) of the same molecule?
A: weak but measurable activity

B6: HRP1A6: horseradish peroxidase mutant, Asn255 changed to Asp, SEQ. ID. NO. 17 (protein, listed as Escherichia coli)
chain: B5 chain
Q: For B6, which stability [9] is on record?
A: stable for up to a week

Q: And the total activity ([8]; ABTS assay)?
A: greater than 100 units/L

Q: And the “peroxidase activity on addition of IPTG” value ([8]; as little as 5 μM of IPTG added)?
A: markedly decreased activity

Q: And the “concentration of active HRP” value ([8]; estimated from ABTS activity)?
A: ~100 µg/L

Q: And the “higher peroxidase activity than the parent clone” value ([8]; first generation, no IPTG added)?
A: 10-14 fold

Q: What about the “share of HRP activity found in the LB culture medium” value ([8]; judged by the ABTS activity) of the same molecule?
A: greater than 95%
